Laboratory results published in IntAct's records for PubMed 20371544.

B1: Muscle, skeletal receptor tyrosine-protein kinase (Mus musculus), Q61006 (parent)
chain: MRELVNIPLLQMLTLVAFSGTEKLPKAPVITTPLETVDALVEEVATFMCAVESYPQPEISWTRNKILIKLFDTRYSIRENGQLLTILSVEDSDDGIYCCIANNGVGGAVESCGALQVKMKPKITRPPINVKIIEGLKAVLPCTTMGNPKPSVSWIKGDNALRENSRIAVLESGSLRIHNVQKEDAGQYRCVAKNSLGTAYSKLVKLEVEVFARILRAPESHNVTFGSFVTLRCTAIGIPVPTISWIENGNAVSSGSIQESVKDRVIDSRLQLFITKPGLYTCIATNKHGEKFSTAKAAATVSIAEWSKSQKDSQGYCAQYRGEVCDAVLAKDALVFFNTSYRDPEDAQELLIHTAWNELKAVSPLCRPAAEALLCNHLFQECSPGVVPTPMPICREYCLAVKELFCAKEWQAMEGKAHRGLYRSGMHLLPVPECSKLPSMHRDPTACTRLPYLDYKKENITTFPSITSSRPSADIPNLPASTSSFAVSPAYSMTVIISIVSSFALFALLTIATLYCCRRRKEWKNKKRESTAVTLTTLPSELLLDRLHPNPMYQRMPLLLNPKLLSLEYPRNNIEYVRDIGEGAFGRVFQARAPGLLPYEPFTMVAVKMLKEEASADMQADFQREAALMAEFDNPNIVKLLGVCAVGKPMCLLFEYMAYGDLNEFLRSMSPHTVCSLSHSDLSTRARVSSPGPPPLSCAEQLCIARQVAAGMAYLSERKFVHRDLATRNCLVGETMVVKIADFGLSRNIYSADYYKADGNDAIPIRWMPPESIFYNRYTTESDVWAYGVVLWEIFSYGLQPYYGMAHEEVIYYVRDGNILACPENCPLELYNLMRLCWSKLPADRPSFCSIHRILQRMCERAEGTVGV
partner: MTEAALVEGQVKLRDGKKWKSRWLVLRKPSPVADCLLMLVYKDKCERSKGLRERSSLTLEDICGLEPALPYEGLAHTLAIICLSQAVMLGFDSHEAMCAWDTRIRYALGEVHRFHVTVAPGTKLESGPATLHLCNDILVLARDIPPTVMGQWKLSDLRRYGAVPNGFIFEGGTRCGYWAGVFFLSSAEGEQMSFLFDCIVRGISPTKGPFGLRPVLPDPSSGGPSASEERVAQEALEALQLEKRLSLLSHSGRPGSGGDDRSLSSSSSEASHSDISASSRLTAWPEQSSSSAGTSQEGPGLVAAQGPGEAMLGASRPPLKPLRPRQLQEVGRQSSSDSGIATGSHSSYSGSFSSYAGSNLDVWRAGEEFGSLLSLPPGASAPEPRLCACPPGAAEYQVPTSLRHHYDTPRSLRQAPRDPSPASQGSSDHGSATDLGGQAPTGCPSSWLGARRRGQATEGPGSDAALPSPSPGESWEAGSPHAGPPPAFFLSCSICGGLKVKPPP

Variants of: B1
Settings: with dok7_mouse Dok7, Q18PE0

Row | effect of a mutation on the interaction | Variant
1 | decreasing interaction | M604I
2 | disrupting interaction | A726V
